In patent US20130236458A1 (AbbVie / Abbott, published 2013):
Each block holds one binder with its values, some of them ahead of it.

Key:
Recombinant Human IL-17 [1] = target: T1, Recombinant Human IL-17 (human, UniProt Q16552 20-155, limits assumed); assay: cell-based or functional assay
T1 sequence (looked up): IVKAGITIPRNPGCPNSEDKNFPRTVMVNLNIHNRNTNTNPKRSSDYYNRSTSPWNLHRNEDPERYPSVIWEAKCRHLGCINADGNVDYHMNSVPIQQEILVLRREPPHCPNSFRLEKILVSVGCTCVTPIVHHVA

Recombinant Human IL-13 [2] = target: T2, Recombinant Human IL-13 (human, UniProt P35225 35-146, limits assumed); assay: cell-based or functional assay
T2 sequence (P35225 35-146 limits assumed): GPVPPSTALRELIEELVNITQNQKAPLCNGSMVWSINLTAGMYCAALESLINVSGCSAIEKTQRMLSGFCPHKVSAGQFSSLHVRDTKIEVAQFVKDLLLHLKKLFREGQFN

Recombinant Human IL-17 [3] = target: T1, Recombinant Human IL-17; assay: SPR (Biacore)
Procedure: (§1) The BIACORE assay (Biacore, Inc, Piscataway, N.J.) determined the affinity of antibodies or DVD-Ig with kinetic measurements of on-rate and off-rate constants. Binding of antibodies or DVD-Ig proteins to a target antigen (for example, a purified recombinant target antigen) was determined by surface plasmon resonance-based measurements with a Biacore®1000 or 3000 instrument (Biacore® AB, Uppsala, Sweden) using running HBS-EP (10 mM HEPES [pH 7.4], 150 mM NaCl, 3 mM EDTA, and 0.005% surfactant P20) at 25° C. All chemicals were obtained from Biacore® AB (Uppsala, Sweden) or otherwise from a different source as described in the text. For example, approximately 5000 RU of goat anti-mouse IgG, (Fcγ), fragment specific polyclonal antibody (Pierce Biotechnology Inc, Rockford, Ill.) diluted in 10 mM sodium acetate (pH 4.5) was directly immobilized across a CM5 research grade biosensor chip using a standard amine coupling kit according to manufacturer's instructions and procedures at 25 μg/ml. Unreacted moieties on the biosensor surface were blocked with ethanolamine. Modified carboxymethyl dextran surface in flowcell 2 and 4 was used as a reaction surface. Unmodified carboxymethyl dextran without goat anti-mouse IgG in flow cell 1 and 3 was used as the reference surface. For kinetic analysis, rate equations derived from the 1:1 Langmuir binding model were fitted simultaneously to association and dissociation phases of all eight injections (using global fit analysis) with the use of Biaevaluation 4.0.1 software. Purified antibodies or DVD-Ig proteins were diluted in HEPES-buffered saline for capture across goat anti-mouse IgG specific reaction surfaces. Antibodies or DVD-Ig proteins to be captured as a ligand (25 μg/ml) were injected over reaction matrices at a flow rate of 5 μl/minute. The association and dissociation rate constants, kₒₙ (M⁻¹s⁻¹) and koff (s⁻¹) were determined under a continuous flow rate of 25 μl/minute. Rate constants were derived by making kinetic binding measurements at different antigen concentrations ranging from 10-200 nM. The equilibrium dissociation constant (M) of the reaction between antibodies or DVD-Ig proteins and the target antigen was then calculated from the kinetic rate constants by the following formula: KD=koff/kₒₙ. Binding was recorded as a function of time and kinetic rate constants were calculated.

Recombinant Human IL-13 [4] = target: T2, Recombinant Human IL-13; assay: SPR (Biacore)
Procedure: as §1

C-Terminal VD IL17 Neutralization Assay IC50 (Recombinant Human IL-17 [1]): 0.266 nM
N-Terminal VD IL13 Neutralization Assay IC50 (Recombinant Human IL-13 [2]): 0.077 nM
B1: DVD2182 (bispecific antibody)
VH: EVQLVQSGAEVKKPGASVKVSCKASGYTFTTYGVSWVRQAPGQGLEWMGEIYPGNYNTYYNEKFRGRVTMTTDTSTSTAYMELRSLRSDDTAVYYCARWRTSYFSDYGYFDYWGQGTTVTVSSASTKGPSVFPLAPEVQLVQSGAEVKKPGESVKISCKASGGSFRSYGISWVRQAPGQGLEWMGGITHFFGITDYAQKFQGRVTITADESTTTAYMELSGLTSDDTAVYYCAREPNDFWNGYYDTHDFDSWGQGTTVTVSS
VL: DVVMTQSPLSLPVTLGQPASISCRSSQSLVHSHGNTYLHWYQQRPGQSPRLLIYTVSNRFSGVPDRFSGSGSGTDFTLKISRVEAEDVGVYYCSQSTHVPYTFGGGTKVEIKRTVAAPEIVLTQSPDFQSVTPKEKVTITCRASQNIGSELHWYQQKPDQSPKLLIKYASHSISGVPSRFSGSGSGTDFTLTINGLEAEDAATYYCHQSDTLPHTFGQGTKVDIKR

N-Terminal VD IL17 Neutralization Assay IC50 (Recombinant Human IL-17 [1]): 2.8 pM
C-Terminal VD IL13 Neutralization Assay IC50 (Recombinant Human IL-13 [2]): 1.43 nM
B3: DVD2149 (bispecific antibody)
VH: EVQLVQSGAEVKKPGSSVKVSCKASGYTFTDYEIHWVRQAPGQGLEWMGVNDPESGGTFYNQKFDGRVTLTADESTSTAYMELSSLRSEDTAVYYCTRYSKWDSFDGMDYWGQGTTVTVSSASTKGPEVTLRESGPGLVKPTQTLTLTCTLYGFSLSTSDMGVDWIRQPPGKGLEWLAHIWWDDVKRYNPALKSRLTISKDTSKNQVVLKLTSVDPVDTATYYCARTVSSGYIYYAMDYWGQGTLVTVSS
VL: DIQMTQSPSSLSASVGDRVTITCRASSGIISYIDWFQQKPGKAPKRLIYATFDLASGVPSRFSGSGSGTDYTLTISSLQPEDFATYYCRQVGSYPETFGQGTKLEIKRTVAAPDIQMTQSPSSLSASVGDRVTISCRASQDIRNYLNWYQQKPGKAPKLLIFYTSKLHSGVPSRFSGSGSGTDYTLTISSLQPEDIATYYCQQGLTPPLTFGGGTKVEIKR

N-Terminal VD IL17 Neutralization Assay IC50 (Recombinant Human IL-17 [1]): 17.9 pM
C-Terminal VD IL13 Neutralization Assay IC50 (Recombinant Human IL-13 [2]): 0.526 nM
B4: DVD2151 (bispecific antibody)
VH: B3 VH
VL: DIQMTQSPSSLSASVGDRVTITCRASSGIISYIDWFQQKPGKAPKRLIYATFDLASGVPSRFSGSGSGTDYTLTISSLQPEDFATYYCRQVGSYPETFGQGTKLEIKRTVAAPSVFIFPPDIQMTQSPSSLSASVGDRVTISCRASQDIRNYLNWYQQKPGKAPKLLIFYTSKLHSGVPSRFSGSGSGTDYTLTISSLQPEDIATYYCQQGLTPPLTFGGGTKVEIKR

C-Terminal VD IL17 Neutralization Assay IC50 (Recombinant Human IL-17 [1]): 0.004 nM
N-Terminal VD IL13 Neutralization Assay IC50 (Recombinant Human IL-13 [2]): 0.099 nM
B9: DVD2150 (bispecific antibody)
VH: EVTLRESGPGLVKPTQTLTLTCTLYGFSLSTSDMGVDWIRQPPGKGLEWLAHIWWDDVKRYNPALKSRLTISKDTSKNQVVLKLTSVDPVDTATYYCARTVSSGYIYYAMDYWGQGTLVTVSSASTKGPEVQLVQSGAEVKKPGSSVKVSCKASGYTFTDYEIHWVRQAPGQGLEWMGVNDPESGGTFYNQKFDGRVTLTADESTSTAYMELSSLRSEDTAVYYCTRYSKWDSFDGMDYWGQGTTVTVSS
VL: DIQMTQSPSSLSASVGDRVTISCRASQDIRNYLNWYQQKPGKAPKLLIFYTSKLHSGVPSRFSGSGSGTDYTLTISSLQPEDIATYYCQQGLTPPLTFGGGTKVEIKRTVAAPSVFIFPPDIQMTQSPSSLSASVGDRVTITCRASSGIISYIDWFQQKPGKAPKRLIYATFDLASGVPSRFSGSGSGTDYTLTISSLQPEDFATYYCRQVGSYPETFGQGTKLEIKR

More lines, now with the values behind:

B2: DVD2184 (bispecific antibody)
VH: EVQLVQSGAEVKKPGASVKVSCKASGYTFTSYWMHWVRQAPGQGLEWIGNINPKGGSNIYNEKFQGRVTMTRDTSISTAYMELSRLRSDDTAVYYCARLDYFGDSFDLWGQGTTVTVSSASTKGPEVQLVQSGAEVKKPGSSVKVSCKASGYTFTDYEIHWVRQAPGQGLEWMGVNDPESGGTFYNQKFDGRVTLTADESTSTAYMELSSLRSEDTAVYYCTRYSKWDSFDGMDYWGQGTTVTVSS
VL: DIQMTQSPSSLSASVGDRVTITCRASQGIRNYLNWYQQKPGKAPKLLIYYASNLEVGVPSRFSGSGSGTDYTLTISSLQPEDFATYYCQQDNRFPYTFGGGTKVEIKRTVAAPDIQMTQSPSSLSASVGDRVTITCRASSGIISYIDWFQQKPGKAPKRLIYATFDLASGVPSRFSGSGSGTDYTLTISSLQPEDFATYYCRQVGSYPETFGQGTKLEIKR
C-Terminal VD IL17 Neutralization Assay IC50 (Recombinant Human IL-17 [1]): 0.405 nM
N-Terminal VD IL13 Neutralization Assay IC50 (Recombinant Human IL-13 [2]): 0.121 nM

B5: DVD2153 (bispecific antibody)
VH: EVQLVQSGAEVKKPGSSVKVSCKASGYTFTDYEIHWVRQAPGQGLEWMGVNDPESGGTFYNQKFDGRVTLTADESTSTAYMELSSLRSEDTAVYYCTRYSKWDSFDGMDYWGQGTTVTVSSASTKGPSVFPLAPEVTLRESGPGLVKPTQTLTLTCTLYGFSLSTSDMGVDWIRQPPGKGLEWLAHIWWDDVKRYNPALKSRLTISKDTSKNQVVLKLTSVDPVDTATYYCARTVSSGYIYYAMDYWGQGTLVTVSS
VL: B3 VL
N-Terminal VD IL17 Neutralization Assay IC50 (Recombinant Human IL-17 [1]): 4.9 pM
C-Terminal VD IL13 Neutralization Assay IC50 (Recombinant Human IL-13 [2]): 2.44 nM

B6: DVD2193 (bispecific antibody)
VH: EVQLVQSGAEVKKPGSSVKVSCKASGGSFGGYGIGWVRQAPGQGLEWMGGITPFFGFADYAQKFQGRVTITADESTTTAYMELSGLTSDDTAVYYCARDPNEFWNGYYSTHDFDSWGQGTTVTVSSASTKGPEVQLVQSGAEVKKPGASVKVSCKASGYTFTSYWMHWVRQAPGQGLEWIGNINPKGGSNIYNEKFQGRVTMTRDTSISTAYMELSRLRSDDTAVYYCARLDYFGDSFDLWGQGTTVTVSS
VL: EIVLTQSPDFQSVTPKEKVTITCRASQDIGSELHWYQQKPDQPPKLLIKYASHSTSGVPSRFSGSGSGTDFTLTINGLEAEDAGTYYCHQTDSLPYTFGPGTKVDIKRTVAAPSVFIFPPDIQMTQSPSSLSASVGDRVTITCRASQGIRNYLNWYQQKPGKAPKLLIYYASNLEVGVPSRFSGSGSGTDYTLTISSLQPEDFATYYCQQDNRFPYTFGGGTKVEIKR
notes: DVD-Ig; also called DVD2193H; DVD2193L
Kd (Recombinant Human IL-17 [3]): 0.012 nM
koff (Recombinant Human IL-17 [3]): 2.2e-05 s⁻¹
kon (Recombinant Human IL-17 [3]): 1.9e+06 M⁻¹ s⁻¹
Kd (Recombinant Human IL-13 [4]): 0.066 nM
koff (Recombinant Human IL-13 [4]): 3.9e-05 s⁻¹
kon (Recombinant Human IL-13 [4]): 590000 M⁻¹ s⁻¹
N-Terminal VD IL17 Neutralization Assay IC50 (Recombinant Human IL-17 [1]): 14 pM
C-Terminal VD IL13 Neutralization Assay IC50 (Recombinant Human IL-13 [2]): 0.028 nM

B7: DVD2148 (bispecific antibody)
VH: B9 VH
VL: DIQMTQSPSSLSASVGDRVTISCRASQDIRNYLNWYQQKPGKAPKLLIFYTSKLHSGVPSRFSGSGSGTDYTLTISSLQPEDIATYYCQQGLTPPLTFGGGTKVEIKRTVAAPDIQMTQSPSSLSASVGDRVTITCRASSGIISYIDWFQQKPGKAPKRLIYATFDLASGVPSRFSGSGSGTDYTLTISSLQPEDFATYYCRQVGSYPETFGQGTKLEIKR
C-Terminal VD IL17 Neutralization Assay IC50 (Recombinant Human IL-17 [1]): 0.0116 nM
N-Terminal VD IL13 Neutralization Assay IC50 (Recombinant Human IL-13 [2]): 0.054 nM

B8: DVD2152 (bispecific antibody)
VH: EVTLRESGPGLVKPTQTLTLTCTLYGFSLSTSDMGVDWIRQPPGKGLEWLAHIWWDDVKRYNPALKSRLTISKDTSKNQVVLKLTSVDPVDTATYYCARTVSSGYIYYAMDYWGQGTLVTVSSASTKGPSVFPLAPEVQLVQSGAEVKKPGSSVKVSCKASGYTFTDYEIHWVRQAPGQGLEWMGVNDPESGGTFYNQKFDGRVTLTADESTSTAYMELSSLRSEDTAVYYCTRYSKWDSFDGMDYWGQGTTVTVSS
VL: B7 VL
C-Terminal VD IL17 Neutralization Assay IC50 (Recombinant Human IL-17 [1]): 0.0069 nM
N-Terminal VD IL13 Neutralization Assay IC50 (Recombinant Human IL-13 [2]): 0.112 nM
